Assay results reported in patent US20260241049A1, “Radiopharmaceutical Compositions Targeting Glypican-3 and Uses Thereof” (RayzeBio, Inc., priority 2023, published 2026).
Starred links: 1 amine or outer side, 2 acyl side, 3 side chain; linkers in the order of their positions; H or OH if unused. Positions of bridges follow the written chain, without caps; N, C: chain ends. Non-standard residues stand in square brackets, D forms with d. Groups on a side chain read outwards from the residue. Primed or numbered codes have the meaning given here. F4aao(3) = 4-(carboxymethoxy)-L-phenylalanine ((S)-2-amino-3-(4-(carboxymethoxy)phenyl)propanoic acid), O=C([C@H](Cc1ccc(OCC(=O)[*:3])cc1)N[*:1])[*:2]; Thr(Me) = O-methyl threonine, (3R)-2-amino-3-methoxybutanoic acid, CO[C@H](C)[C@H](N[*:1])C(=O)[*:2]; F4aao = 4-(carboxymethoxy)-L-phenylalanine, O=C([C@H](Cc1ccc(OCC(=O)[*:3])cc1)N[*:1])[*:2]; MeHseMe = N-methyl-O-methyl-L-homoserine, COCC[C@@H](C(=O)[*:2])N(C)[*:1]; Phe(4-(1-Me-pyrazol-4-yl)) = Cn1cc(-c2ccc(C[C@H](N)C(=O)O)cc2)cn1; DOTA‑Lu(3) = DOTA chelate with cold lutetium-175, amide-linked; NMeAla(isoquinolin-7-yl) = CN[C@@H](Cc1ccc2ccncc2c1)C(=O)O; Phe(4-CH2COOH) = N[C@@H](Cc1ccc(CC(=O)O)cc1)C(=O)O; Phe(4-NHCONH2) = NC(=O)Nc1ccc(C[C@H](N)C(=O)O)cc1; 3Pal(6-Ph) = N[C@@H](Cc1ccc(-c2ccccc2)nc1)C(=O)O; Phe(4-COOH) = N[C@@H](Cc1ccc(C(=O)O)cc1)C(=O)O; NMe2Nal = CN[C@@H](Cc1ccc2ccccc2c1)C(=O)O; NMeI = CC[C@H](C)[C@H](NC)C(=O)O; NMeQ = CN[C@@H](CCC(N)=O)C(=O)O; NMeK = CN[C@@H](CCCCN)C(=O)O; NMeC = CN[C@@H](CS)C(=O)O

target: T1, human Glypican3 (R&D systems, catalog number: 2119-GP) (human, UniProt P51654 25-559, limits assumed); test: SPR (Biacore T200), Method B-1: human Glypican3 amine-coupled to CM3 chip, peptide as analyte
T1 construct: Bought recombinant protein, amine-coupled to the chip in Method B-1; also called GPC3; hGPC3
Description: A CM3 sensor chip (Cytiva) was inserted into a Biacore T200 (Cytiva), primed three times with a running buffer: HBS-P+, pH 7.4 (Cytiva), and equilibrated at a flow rate of 30 μL/min. Ligand immobilization was performed at a flow rate of 10 μL/min. 50 μL each of 60 mM EDC solution (Cytiva) and 650 mM NHS solution (Cytiva) were mixed, and then reacted at a flow rate of 10 μL/min for 420 seconds, 150 μL of 0.2 μM human Glypican3 (R&D systems, catalog number: 2119-GP) solution which was prepared by diluting with 10 mM acetic acid solution (pH 5.0), was reacted at a flow rate of 10 μL/min for 420 seconds, and Glypican3 was immobilized on the CM3 sensor chip. After immobilization, 1.0 M ethanolamine aqueous solution (Cytiva) was allowed to react for 420 seconds at a flow rate of 10 μL/min for capping. A peptide lysate prepared to 10 mM in DMSO solution was diluted with running buffer to a final concentration of 10 μM peptide lysate. […] Using the above samples, peptide kinetics for Glypican3 was obtained by SPR measurement. Kinetics evaluation of Glypican3 was performed by SPR measurements at a flow rate of 10 μL/min, setting the association time to 120 seconds and the disassociation time to 600 seconds.
(§1) The obtained data by Method B-1, Method B-2, Method B-3 and Method B-4 were analyzed by follow. Single Cycle Kinetics was used as the kinetics evaluation model, and curve fitting was performed using Biacore T200 Evaluation Software Version 3.0 (Cytiva).

Kd [nM] | Binder
1.9 | {CH2CO}-[NMeQ][NMeQ]D[NMeQ][Phe(4-COOH)]II[F4aao][NMe2Nal]G[Phe(4-(1-Me-pyrazol-4-yl))][NMeC]-NH2 (thioether N-12; SMILES CC[C@H](C)[C@@H]1NC(=O)[C@H](Cc2ccc(C(=O)O)cc2)NC(=O)[C@H](CCC(N)=O)N(C)C(=O)[C@H](CC(=O)O)NC(=O)[C@H](CCC(N)=O)N(C)C(=O)[C@H](CCC(N)=O)N(C)C(=O)CSC[C@@H](C(N)=O)N(C)C(=O)[C@H](Cc2ccc(-c3cnn(C)c3)cc2)NC(=O)CNC(=O)[C@H](Cc2ccc3ccccc3c2)N(C)C(=O)[C@H](Cc2ccc(OCC(=O)O)cc2)NC(=O)[C@H]([C@@H](C)CC)NC1=O) [Macrocyclic peptide of Example 2-17 (SEQ ID No. 20)]
3.5 | {CH2CO}-[NMeQ][NMeQ]D[NMeQ][Phe(4-COOH)]II[Phe(4-CH2COOH)][NMe2Nal]G[Phe(4-(1-Me-pyrazol-4-yl))][NMeC]-NH2 (thioether N-12; SMILES CC[C@H](C)[C@@H]1NC(=O)[C@H](Cc2ccc(C(=O)O)cc2)NC(=O)[C@H](CCC(N)=O)N(C)C(=O)[C@H](CC(=O)O)NC(=O)[C@H](CCC(N)=O)N(C)C(=O)[C@H](CCC(N)=O)N(C)C(=O)CSC[C@@H](C(N)=O)N(C)C(=O)[C@H](Cc2ccc(-c3cnn(C)c3)cc2)NC(=O)CNC(=O)[C@H](Cc2ccc3ccccc3c2)N(C)C(=O)[C@H](Cc2ccc(CC(=O)O)cc2)NC(=O)[C@H]([C@@H](C)CC)NC1=O) [Macrocyclic peptide of Example 2-16 (SEQ ID No. 19)]

target: T2, Human Glypican3-Fc (ACRO Biosystems, GP3-H5258) (human, UniProt P51654 25-559); test: SPR (Biacore T200), Method B-2: human Glypican3-Fc captured by anti-human Fc on CM3 chip, peptide as analyte
T2 construct: Bought fusion protein, captured in Methods B-2, B-3 and B-4; Catalogue number is printed only in Method B-2; not shown: Fc part of the bought fusion
Description: A CM3 sensor chip (Cytiva) was inserted into a Biacore T200 (Cytiva), primed three times with a running buffer: HBS-P-+, pH 7.4 (Cytiva), and equilibrated at a flow rate of 30 μL/min. Using the Anti-Fc Capture Kit (Cytiva), 50 LL each of 60 mM EDC solution (Cytiva) and 650 mM NHS solution (Cytiva) were mixed, and then reacted at a flow rate of 10 μL/min for 420 seconds, 150 μL of […] Anti-human IgG (Fc) Antibody solution was prepared by diluting with 10 mM acetic acid solution (pH 5.0), reacted at a flow rate of 10 μL/min for 420 seconds, and immobilized on a CM3 sensor chip. After immobilization, 1.0 M ethanolamine aqueous solution (Cytiva) was allowed to react for 420 seconds at a flow rate of 10 μL/min for capping. Human Glypican3-Fc (ACRO Biosystems, GP3-H5258) was allowed to react for 60 seconds at a flow rate of 10 μL/min. After capturing human Glypican3-Fc, a peptide solution prepared to 10 mM in DMSO solution was diluted with a running buffer to a final concentration of 10 μM. […] Using the above samples, peptide kinetics for Glypican3 was obtained by SPR measurement. Kinetics evaluation of Glypican3 was performed by SPR measurements at a flow rate of 10 μL/min. setting the association time to 120 seconds and the disassociation time to 600 seconds.
as §1

Kd [nM] | Binder
0.87 | {CH2CO}-[NMeK]([dE-DOTA‑Lu(3)])[NMeI]D[NMeQ][Phe(4-COOH)]II[F4aao(3)][NMeAla(isoquinolin-7-yl)]G[3Pal(6-Ph)][NMeC]-NH2 (thioether N-12) [Lu-C-33]
2.03 | KQDQFTIFFGXC (not fully specified; MeK(DOTA-Lu)-MeQ-D-MeQ-F4COO-TMe-I-F4aao-MeNal27N-G-3Py6Ph-MeC-NH2; thioether ring from N-terminal acetyl to MeC12) [Lu-C-35]
0.4 | {CH2CO}-[NMeQ][MeHseMe]D[NMeQ][Phe(4-COOH)][Thr(Me)]I[Phe(4-NHCONH2)][NMe2Nal]G[3Pal(6-Ph)][NMeC]-NH2 (thioether N-12; SMILES CC[C@H](C)[C@@H]1NC(=O)[C@H]([C@@H](C)OC)NC(=O)[C@H](Cc2ccc(C(=O)O)cc2)NC(=O)[C@H](CCC(N)=O)N(C)C(=O)[C@H](CC(=O)O)NC(=O)[C@H](CCOC)N(C)C(=O)[C@H](CCC(N)=O)N(C)C(=O)CSC[C@@H](C(N)=O)N(C)C(=O)[C@H](Cc2ccc(-c3ccccc3)nc2)NC(=O)CNC(=O)[C@H](Cc2ccc3ccccc3c2)N(C)C(=O)[C@H](Cc2ccc(NC(N)=O)cc2)NC1=O) [Macrocyclic peptide of Example 2-21 (SEQ ID No. 39)]
0.67 | {CH2CO}-K[NMeI]D[NMeQ][Phe(4-COOH)]II[F4aao][NMeAla(isoquinolin-7-yl)]G[3Pal(6-Ph)][NMeC]-NH2 (thioether N-12; not fully specified (residue 1); also: DOTA-Lu: cold Lu-175 complex) [Lu-C-42]
